T1: FBF-2 RBD+CT L610A;LST-1 B peptide (Caenorhabditis elegans;Caenorhabditis …, UniProt Q09312;P91820 164-632;67-98, L610A|)
T1 sequence 1: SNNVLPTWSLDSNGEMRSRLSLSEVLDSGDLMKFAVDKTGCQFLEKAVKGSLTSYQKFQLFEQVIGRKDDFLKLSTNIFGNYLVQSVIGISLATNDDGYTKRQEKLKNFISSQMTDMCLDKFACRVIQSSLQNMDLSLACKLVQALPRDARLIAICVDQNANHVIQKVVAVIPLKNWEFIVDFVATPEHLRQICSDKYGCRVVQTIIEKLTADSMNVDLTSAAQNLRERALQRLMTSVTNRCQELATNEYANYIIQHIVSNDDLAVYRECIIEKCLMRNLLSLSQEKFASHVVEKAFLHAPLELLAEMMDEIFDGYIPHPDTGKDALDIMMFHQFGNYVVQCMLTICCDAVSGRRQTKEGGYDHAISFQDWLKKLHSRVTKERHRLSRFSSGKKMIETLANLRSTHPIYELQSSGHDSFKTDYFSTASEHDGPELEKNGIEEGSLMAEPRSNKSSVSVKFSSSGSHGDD
T1 sequence 2: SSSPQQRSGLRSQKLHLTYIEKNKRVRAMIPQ

T2: FBF-2 RBD+CT;LST-1 B peptide (Caenorhabditis elegans;Caenorhabditis …, UniProt Q09312;P91820 164-632;67-98, |)
T2 sequence 1: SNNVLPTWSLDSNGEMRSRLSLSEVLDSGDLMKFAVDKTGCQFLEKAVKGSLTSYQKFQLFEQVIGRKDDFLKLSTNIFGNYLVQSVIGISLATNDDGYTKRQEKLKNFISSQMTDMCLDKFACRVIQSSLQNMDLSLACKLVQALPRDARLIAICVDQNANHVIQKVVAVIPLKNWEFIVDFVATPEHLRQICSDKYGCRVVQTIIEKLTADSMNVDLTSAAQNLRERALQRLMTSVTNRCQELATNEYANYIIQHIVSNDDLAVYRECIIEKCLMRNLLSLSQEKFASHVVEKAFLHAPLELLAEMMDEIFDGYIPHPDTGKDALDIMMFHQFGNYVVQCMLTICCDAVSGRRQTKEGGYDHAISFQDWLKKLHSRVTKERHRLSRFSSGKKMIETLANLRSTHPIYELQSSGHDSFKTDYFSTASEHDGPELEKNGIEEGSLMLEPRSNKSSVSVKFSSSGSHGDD
T2 sequence 2: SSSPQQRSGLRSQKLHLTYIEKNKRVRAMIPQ


Assays:
[1] = biological target: T3, FBF-2 RBD+CT Loop6A (Caenorhabditis elegans, UniProt Q09312, D594A/E592A/E597A/E599A/E604A/E605A); experiment: ITC, peptide into FBF-2 RBD + CT Loop6A, no RNA; format: binding, C. elegans; settings: 20 °C, pH 7.4
T3 construct: A cDNA fragment encoding C. elegans FBF-2 RBD + CT (residues 164-632) was cloned into the pSMT3 vector; His6-SUMO (N, cleaved yes); made in house; host or cells: E. coli BL21-CodonPlus (DE3)-RIL (as for wild type)
T3 sequence (Q09312 164-632 E592A/D594A/E597A/E599A/E604A/E605A): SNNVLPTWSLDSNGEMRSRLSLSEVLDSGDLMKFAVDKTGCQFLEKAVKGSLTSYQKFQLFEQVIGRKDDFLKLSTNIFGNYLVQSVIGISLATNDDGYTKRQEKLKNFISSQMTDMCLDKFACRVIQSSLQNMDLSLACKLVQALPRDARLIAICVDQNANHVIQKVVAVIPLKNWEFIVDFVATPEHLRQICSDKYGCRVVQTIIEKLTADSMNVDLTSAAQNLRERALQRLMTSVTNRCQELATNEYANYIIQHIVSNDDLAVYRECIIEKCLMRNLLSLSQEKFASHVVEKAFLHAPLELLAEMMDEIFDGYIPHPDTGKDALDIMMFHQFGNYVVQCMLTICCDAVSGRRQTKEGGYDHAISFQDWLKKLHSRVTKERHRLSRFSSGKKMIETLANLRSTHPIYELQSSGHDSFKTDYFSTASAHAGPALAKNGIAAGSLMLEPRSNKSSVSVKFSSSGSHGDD
Experimental: Experiments were performed at 20 °C using a MicroCal PEAQ-ITC Automated (Malvern Instruments) with a 200-μL standard cell and a 40-μL titration syringe. FBF-2 and LST-1 variants were prepared in a buffer of 20 mM HEPES pH 7.4, 150 mM NaCl, and 0.5 mM TCEP by gel filtration. LST-1 (100–400 µM) was titrated from the syringe into the cell containing FBF-2 (10–30 µM) in 2 µl aliquots. Experiments were performed in duplicate due to the limitation of the amount of protein needed. Data were analyzed using the MicroCal PEAQ-ITC Analysis Software (version 1.40) provided by the manufacturer with the one-site model (Table S3).
Supplementary Table 3. Protein interaction affinities, stoichiometries, and thermodynamic parameters between FBF-2 CT/LST-1 variants and FBF-2 measured by ITC. Two technical replicates (n=2 independent experiments) were performed for each analysis with similar results, and the values are shown for each replicate. Source data are provided as a Source Data file. […]
RBD+CT LST-1 A none Not detected
RBD FBF-2 CT none Not detected
1 Reported previously 18.

[2] = biological target: T1, FBF-2 RBD+CT L610A;LST-1 B peptide; experiment: EMSA; 50 uM LST-1 B; EMSA: FBF-2 in 20 mM HEPES pH 7.4, 150 mM NaCl, 0.5 mM TCEP mixed 1:1 with 5 nM final RNA in 10 mM HEPES pH 7.4, 0.01% Tween 20, 0.1 mg/ml BSA, 0.1 mg/ml yeast; settings: protein: recombinant;recombinant; tags: none (His6-SUMO removed with Ulp1);none (His6-SUMO removed with Ulp1); copies: 1;1; label: 3'-Cy5
[3] = biological target: T2, FBF-2 RBD+CT;LST-1 B peptide; experiment: as above; settings: protein: recombinant;recombinant; tags: none (His6-SUMO removed with Ulp1);none (His6-SUMO removed with Ulp1); copies: 1;1; label: 3'-Cy5

Molecule	-T∆S ([1]; replicate 1)	∆G ([1]; replicate 1)	∆H ([1]; replicate 1)	-T∆S ([1]; replicate 2)	∆G ([1]; replicate 2)	∆H ([1]; replicate 2)	Kd [2]	Kd [3]
LST-1 B: LST-1 B peptide, residues 67–98, expressed in E. coli (SSSPQQRSGLRSQKLHLTYIEKNKRVRAMIPQ; left off: His6-SUMO, N-terminal, cleaved)	5.07 kcal/mol	-8.01 kcal/mol	-13.1 kcal/mol	3.59 kcal/mol	-7.91 kcal/mol	-11.5 kcal/mol		
AUCAUGUGCCAUAC (ssRNA) [gld-1 FBEa RNA (EMSA)]							82 ± 18 nM	68 ± 21 nM

— publication PMC10641069, “Intra- and inter-molecular regulation by intrinsically-disordered regions governs PUF protein RNA binding” (Nature Communications, 2023)
